Measured values as given in the supplement of paper PMC10567573.

B1: MLL5 (parent)
chain: HDDGYMICCDKCSVWQHIDCMGID

Variants of: B1
Assay: protein stability index of a GFP-peptide fusion (GPS, HEK-293T) (PSI 1-6); higher = more stable
Settings: c terminus: a fixed tail appended
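Also: lentivirally expressed fusions sorted by FACS into six bins by GFP to DsRed ratio, PSI derived from sequencing read proportions per bin multiplied by bin number.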

First: HDDGYMICCDKCSVWQEIDCMGID [H17E]
Second: HDDGYMICCDKCSVWQAIDCMGID [H17A]
The protein stability index of the first is higher: 2.89 for the first, 2.16 for the second.

First: HDDGYMICCDKCSVWQCIDCMGID [H17C]
Second: HDDGYMICCDKCSVWQYIDCMGID [H17Y]
The protein stability index of the first is higher: 3.54 for the first, 1.63 for the second.

Going from HDDGYMICCDKCSVWQVIDCMGID [H17V] to HCDGYMICCDKCSVWQHIDCMGID [D2C], the protein stability index falls from 2.8 to 1.89.

First: HADGYMICCDKCSVWQHIDCMGID [D2A]
Second: HWDGYMICCDKCSVWQHIDCMGID [D2W]
The protein stability index of the first is lower: 1.76 for the first, 1.84 for the second.

Going from HYDGYMICCDKCSVWQHIDCMGID [D2Y] to HKDGYMICCDKCSVWQHIDCMGID [D2K], the protein stability index rises from 1.93 to 2.69.

First: HSDGYMICCDKCSVWQHIDCMGID [D2S]
Second: HDVGYMICCDKCSVWQHIDCMGID [D3V]
The protein stability index of the first is lower: 2.16 for the first, 2.75 for the second.

First: HDQGYMICCDKCSVWQHIDCMGID [D3Q]
Second: HDKGYMICCDKCSVWQHIDCMGID [D3K]
The protein stability index of the first is higher: 2.43 for the first, 1.88 for the second.

Going from HDNGYMICCDKCSVWQHIDCMGID [D3N] to HDDGYMICCDKCSVWQHIDCFGID [M21F], the protein stability index rises from 2.09 to 2.17.

Compared with HDDGYMICCDKCSVWQHIDCGGID [M21G], HDDGYMICCDKCSVWQHIDCKGID [M21K] is higher in protein stability index: 2.66 for the first, 2.81 for the second.

Compared with HDDGYMICCDKCSVWQHIDCEGID [M21E], HDDGYMICCDKCSVWQHIDCIGID [M21I] is lower in protein stability index: 2.83 for the first, 2.5 for the second.

Compared with HDDGYMICCDKCSVWQHIDCWGID [M21W], HDDGYMICCDKCSVWQHIDCMVID [G22V] is lower in protein stability index: 2.03 for the first, 1.59 for the second.

Going from HDDGYMICCDKCSVWQHIDCMQID [G22Q] to HDDGYMICCDKCSVWQHIDCMFID [G22F], the protein stability index falls from 2.17 to 2.04.

Going from HDDGHMICCDKCSVWQHIDCMGID [Y5H] to HDDGTMICCDKCSVWQHIDCMGID [Y5T], the protein stability index rises from 3.79 to 3.96.

Going from HDDGYPICCDKCSVWQHIDCMGID [M6P] to HDDGYHICCDKCSVWQHIDCMGID [M6H], the protein stability index rises from 2.96 to 4.05.

Going from HDDGYTICCDKCSVWQHIDCMGID [M6T] to HDDGYRICCDKCSVWQHIDCMGID [M6R], the protein stability index rises from 2.41 to 3.35.

Compared with HDDGYCICCDKCSVWQHIDCMGID [M6C], HDDGYEICCDKCSVWQHIDCMGID [M6E] is lower in protein stability index: 3.2 for the first, 2.79 for the second.

Compared with HDDGYFICCDKCSVWQHIDCMGID [M6F], HDDGYMICCDKCSVWFHIDCMGID [Q16F] is lower in protein stability index: 2.22 for the first, 2.02 for the second.

Going from HDDGYMICCDKCSVYQHIDCMGID [W15Y] to HDDGYMICCDKCSVRQHIDCMGID [W15R], the protein stability index rises from 2.73 to 3.18.

Going from HDDGYMICCDKCSVLQHIDCMGID [W15L] to HDDGYMICCDKCSVIQHIDCMGID [W15I], the protein stability index falls from 3.16 to 2.43.

Compared with HDDGYMICCDKCSVVQHIDCMGID [W15V], HDDGYMICCDKCSVTQHIDCMGID [W15T] is higher in protein stability index: 3.59 for the first, 3.7 for the second.

First: HDDGYMICCDKCSVHQHIDCMGID [W15H]
Second: HDDGYMICCDKCNVWQHIDCMGID [S13N]
The protein stability index of the first is higher: 3.93 for the first, 2.56 for the second.

First: HDDGYMICCDKCQVWQHIDCMGID [S13Q]
Second: HDDGYMICCDKCRVWQHIDCMGID [S13R]
The protein stability index of the first is lower: 2.59 for the first, 3.31 for the second.

First: HDDGYMICCDKCYVWQHIDCMGID [S13Y]
Second: MDDGYMICCDKCSVWQHIDCMGID [H1M]
The protein stability index of the first is higher: 1.93 for the first, 1.57 for the second.

Compared with LDDGYMICCDKCSVWQHIDCMGID [H1L], CDDGYMICCDKCSVWQHIDCMGID [H1C] is lower in protein stability index: 2.47 for the first, 2.1 for the second.

Going from ADDGYMICCDKCSVWQHIDCMGID [H1A] to VDDGYMICCDKCSVWQHIDCMGID [H1V], the protein stability index rises from 2.42 to 2.61.

First: PDDGYMICCDKCSVWQHIDCMGID [H1P]
Second: HDDGYMICHDKCSVWQHIDCMGID [C9H]
The protein stability index of the first is lower: 1.86 for the first, 2.86 for the second.

Compared with HDDGYMICEDKCSVWQHIDCMGID [C9E], HDDGYMICSDKCSVWQHIDCMGID [C9S] is higher in protein stability index: 3.42 for the first, 3.81 for the second.

First: HDDGYMICRDKCSVWQHIDCMGID [C9R]
Second: HDDGYMICCDKCSVWQHIDCMGIH [D24H]
The protein stability index of the first is higher: 2.76 for the first, 2.29 for the second.

First: HDDGYMICCDKCSVWQHIDCMGIQ [D24Q]
Second: HDDGYMICCDKCSVWQHIDCMGIE [D24E]
The protein stability index of the first is higher: 2.47 for the first, 2.46 for the second.

Compared with HDDGYMICCDKCSVWQHIDCMGIM [D24M], HDDGYMICCDKCSVWQHIDCMGIS [D24S] is higher in protein stability index: 1.56 for the first, 2.35 for the second.

Compared with HDDGYMICCSKCSVWQHIDCMGID [D10S], HDDGYMICCKKCSVWQHIDCMGID [D10K] is lower in protein stability index: 2.72 for the first, 2.51 for the second.

First: HDDGYMICCPKCSVWQHIDCMGID [D10P]
Second: HDDGYMIGCDKCSVWQHIDCMGID [C8G]
The protein stability index of the first is lower: 2.36 for the first, 2.59 for the second.

Going from HDDGYMIDCDKCSVWQHIDCMGID [C8D] to HDDGYMIACDKCSVWQHIDCMGID [C8A], the protein stability index rises from 3.19 to 3.27.

Compared with HDDGYMILCDKCSVWQHIDCMGID [C8L], HDDNYMICCDKCSVWQHIDCMGID [G4N] is lower in protein stability index: 2.46 for the first, 2.05 for the second.

Going from HDDEYMICCDKCSVWQHIDCMGID [G4E] to HDDGYMICCDKCSVWQHIDPMGID [C20P], the protein stability index falls from 2.99 to 2.31.

First: HDDGYMICCDKCSVWQHIKCMGID [D19K]
Second: HDDGYMICCDKCSVWQHIRCMGID [D19R]
The protein stability index of the first is higher: 2.52 for the first, 2.43 for the second.

Going from HDDGYMMCCDKCSVWQHIDCMGID [I7M] to HDDGYMNCCDKCSVWQHIDCMGID [I7N], the protein stability index rises from 2.29 to 3.12.

Compared with HDDGYMICCDKCSPWQHIDCMGID [V14P], HDDGYMICCDKCSTWQHIDCMGID [V14T] is lower in protein stability index: 3.12 for the first, 2.93 for the second.

Compared with HDDGYMICCDKCSVWQHHDCMGID [I18H], HDDGYMICCDKCSVWQHKDCMGID [I18K] is lower in protein stability index: 3.6 for the first, 3.36 for the second.

Compared with HDDGYMICCDKCSVWQHQDCMGID [I18Q], HDDGYMICCDKCSVWQHNDCMGID [I18N] is lower in protein stability index: 3.42 for the first, 2.52 for the second.

Compared with HDDGYMICCDKCSVWQHFDCMGID [I18F], HDDGYMICCDKCSVWQHDDCMGID [I18D] is higher in protein stability index: 2.35 for the first, 3.71 for the second.

First: HDDGYMICCDKHSVWQHIDCMGID [C12H]
Second: HDDGYMICCDKLSVWQHIDCMGID [C12L]
The protein stability index of the first is higher: 2.65 for the first, 1.7 for the second.

Going from HDDGYMICCDKWSVWQHIDCMGID [C12W] to HDDGYMICCDKCSVWQHIDCMGED [I23E], the protein stability index rises from 2.32 to 3.53.

Compared with HDDGYMICCDKCSVWQHIDCMGLD [I23L], HDDGYMICCDKCSVWQHIDCMGQD [I23Q] is higher in protein stability index: 2.57 for the first, 2.89 for the second.

Compared with HDDGYMICCDKCSVWQHIDCMGHD [I23H], HDDGYMICCDKCSVWQHIDCMGGD [I23G] is lower in protein stability index: 3.15 for the first, 2.95 for the second.

First: HDDGYMICCDQCSVWQHIDCMGID [K11Q]
Second: HDDGYMICCDDCSVWQHIDCMGID [K11D]
The protein stability index of the first is higher: 2.94 for the first, 2.79 for the second.

First: HDDGYMICCDMCSVWQHIDCMGID [K11M]
Second: HDDGYMICCDRCSVWQHIDCMGID [K11R]
The protein stability index of the first is lower: 1.55 for the first, 1.85 for the second.
